# Assay results from PMC4633990.
# Key:
# [1] = molecular target: HIV-1 Env of strain ZM53.12 (clade C) on pseudovirus ZM53.12.SG3 (HIV-1 ZM53.12 (clade C))
# [2] = molecular target: HIV-1 Env of strain AC10.29 (clade B) on pseudovirus AC10.29.SG3 (HIV-1 AC10.29 (clade B))
# [3] = molecular target: HIV-1 Env on HIV-1 IIIb-infected CEM-NKr-CCR5 cells (CEM-IIIb) (HIV-1 IIIb) (UniProt P04578)
substance,measurement,setting,value
VRC07-αCD3 bispecific immunomodulatory protein (bispecific antibody),"IC50 of neutralisation of Env-pseudotyped virus ZM53.12.SG3 (clade C), TZM-bl target cells, luciferase",[1],0.24 µg/mL
same,"IC50 of neutralisation of Env-pseudotyped virus AC10.29.SG3 (clade B), TZM-bl target cells, luciferase",[2],0.346 µg/mL
same,"IFN-γ intracellular cytokine staining of human CD4 T cells co-cultured with HIV-infected CEM cells and 0.5 μg ml^−1 protein, relative to unstimulated CD4 T cells (1.4-fold in the absence of HIV-1)",[3],9 fold
